The source of these data is US20170165339A1.

This test addresses HLA-A*24 (human). Briefly: UV peptide-exchange ELISA, yield grade. Background: ELISA stands for enzyme-linked immunosorbent assay.
The molecule DYLKGLASF [… (SEQ ID NO: 163)] showed a peptide exchange yield above 75%.
Next, QYSSVFKSL [… (SEQ ID NO: 216)]: above 75%; KYIPYKYVI [… (SEQ ID NO: 223)]: 50 to 75%.
Take IYLVSIPEL [… (SEQ ID NO: 161)]: the peptide exchange yield was above 75%.
Next, LYHDIFSRL [… (SEQ ID NO: 271)]: above 75%; TFSVSSHLF [… (SEQ ID NO: 222)]: 50 to 75%; FFPPTRQMGLLF [… (SEQ ID NO: 217)]: above 75%.
As to KFSSFSLFF [… (SEQ ID NO: 164)], the peptide exchange yield lay in the range of 50 to 75%.
Turning to VYVGGGQIIHL [… (SEQ ID NO: 174)], the peptide exchange yield was in the range of 50 to 75%.
Regarding VFTRVSSFL [… (SEQ ID NO: 162)], the peptide exchange yield is 50 to 75%.
IFLDYEAGTLSF [… (SEQ ID NO: 227)] registered a peptide exchange yield above 75%.
With AYLHSHALI [… (SEQ ID NO: 274)] the figure was above 75%.
Next, NYINRILKL [… (SEQ ID NO: 167)]: above 75%; EYSLFPGQVVI [… (SEQ ID NO: 197)]: 50 to 75%; YYKSTSSAF [… (SEQ ID NO: 218)]: 50 to 75%.
TYELRYFQI [… (SEQ ID NO: 204)] came in with a peptide exchange yield above 75%.
With IYATEAHVF [… (SEQ ID NO: 201)] the figure was 50 to 75%; with AYTLIAPNI [… (SEQ ID NO: 169)], 50 to 75%.
With VYVSDIQEL [… (SEQ ID NO: 288)], the peptide exchange yield lay in the range of 50 to 75%.
With TYKDEGNDYF [… (SEQ ID NO: 209)] the figure was 50 to 75%.
The molecule KYQDILETI [… (SEQ ID NO: 168)] gave a peptide exchange yield above 75%.
With YFIDSTNLKTHF [… (SEQ ID NO: 269)] the figure was 50 to 75%; with PYRLIFEKF [… (SEQ ID NO: 281)], 20 to 49%; with EYINQGDLHEF [… (SEQ ID NO: 275)], 50 to 75%.
Regarding VYEDQVGKF [… (SEQ ID NO: 170)], the peptide exchange yield is 20 to 49%.
With YYEVHKELF [… (SEQ ID NO: 175)] the figure was above 75%; with YYVYIMNHL [… (SEQ ID NO: 225)], 50 to 75%.
For NYYEVHKELF [… (SEQ ID NO: 270)], the peptide exchange yield was 50 to 75%.
QYLQDAYSF [… (SEQ ID NO: 272)]: the peptide exchange yield is above 75%.
As for IYSWILDHF [… (SEQ ID NO: 173)], the peptide exchange yield was above 75%.
For the molecule LYNKGFIYL [… (SEQ ID NO: 159)], the peptide exchange yield was above 75%.
As for LYIDRPLPYL [… (SEQ ID NO: 196)], the peptide exchange yield lay within 50 to 75%.
With QYLENLEKL [… (SEQ ID NO: 224)], the peptide exchange yield was in the range of 50 to 75%.
Molecule EYPLVINTL [… (SEQ ID NO: 219)] had a peptide exchange yield of 50 to 75%.
On to VYWDSAGAAHF [… (SEQ ID NO: 202)], for which the peptide exchange yield was above 75%.
The molecule VYGFQWRHF [… (SEQ ID NO: 276)] returned a peptide exchange yield above 75%.
Next, RYPDNLKHLYL [… (SEQ ID NO: 280)]: above 75%.
The molecule HYSQELSLLYL [… (SEQ ID NO: 158)] gave a peptide exchange yield above 75%.
On to RYPDNLKHL [… (SEQ ID NO: 286)], for which the peptide exchange yield was in the range of 20 to 49%.
AYVVFVSTL [… (SEQ ID NO: 207)] showed a peptide exchange yield of 20 to 49%.
The molecule KFVDSTFYL [… (SEQ ID NO: 282)] registered a peptide exchange yield above 75%.
Next, DYTTWTALL [… (SEQ ID NO: 165)]: above 75%; RYISDQLFTNF [… (SEQ ID NO: 278)]: above 75%; HYPPVQVLF [… (SEQ ID NO: 285)]: 50 to 75%.
For KYMVYPQTF [… (SEQ ID NO: 267)], the peptide exchange yield was above 75%.
For EYNQWFTKL [… (SEQ ID NO: 176)], the peptide exchange yield fell in the range of 50 to 75%.
As for YFDKVVTL [YFDKVVTL (SEQ ID NO: 215)], the peptide exchange yield was in the range of 20 to 49%.
VYTLDIPVL [… (SEQ ID NO: 160)] displayed a peptide exchange yield above 75%.
TYIKPISKL [… (SEQ ID NO: 273)] registered a peptide exchange yield of 50 to 75%.
With VYQGHTALL [… (SEQ ID NO: 277)], the peptide exchange yield was above 75%.
With LYITEPKTI [… (SEQ ID NO: 287)] the figure was 50 to 75%.
LFIPSSKLLFL [… (SEQ ID NO: 171)]: the peptide exchange yield lay within 50 to 75%.
TYSVSFPMF [… (SEQ ID NO: 195)]: the peptide exchange yield was above 75%.
Turning to KYPVEWAKF [… (SEQ ID NO: 289)], the peptide exchange yield was above 75%.
YYVESGKLF [… (SEQ ID NO: 166)] registered a peptide exchange yield above 75%.
The molecule VYRDETGELF [… (SEQ ID NO: 226)] gave a peptide exchange yield of 50 to 75%.
Turning to RYSTGLAGNLL [… (SEQ ID NO: 221)], the peptide exchange yield fell in the range of 50 to 75%.
RYLNKAFHI [… (SEQ ID NO: 284)] showed a peptide exchange yield of 50 to 75%.
With QYLGQIQHI [… (SEQ ID NO: 268)] the figure was 50 to 75%.
For the molecule YYGPSLFLL [… (SEQ ID NO: 200)], the peptide exchange yield is 50 to 75%.
Consider KYTSWYVAL [… (SEQ ID NO: 228)], for which the peptide exchange yield was above 75%.
With TYGDAGLTYTF [… (SEQ ID NO: 283)] the figure was 50 to 75%; with RYAEEVGIF [… (SEQ ID NO: 199)], 50 to 75%; with TYIESASEL [… (SEQ ID NO: 279)], 50 to 75%.
